Experimental data as given in patent US20230303698A1 (HARBOUR BIOMED SHANGHAI, published 2023).

Molecular target: T1, human 4-1BB (human, UniProt Q07011 24-255)
T1 construct: whole, on cells; Expressed on CHO-K1/hu 4-1BB cells (GenScript, M00538); also called CD137; TNFRSF9
Experiment: flow cytometry, CHO-K1/hu 4-1BB cells
Protocol: The binding ability of the binding protein to a CHO-K1 cell line CHO-K1/hu 4-1BB (GenScript, M00538) highly expressing human 4-1BB and a CHO-K1 cell line CHO-K1/cyno 4-1BB (GenScript, M00569) highly expressing cynomolgus monkey 4-1BB were determined by flow cytometry FACS. Specifically, the cells were digested and resuspended in a complete medium, and the cell density was adjusted to 2×10⁶ cells/mL. […] The cells were incubated at 4° C. for 1 h away from light. Then, the cells in each well were rinsed twice with 100 μL of pre-cooled FACS buffer (PBS buffer containing 0.5% BSA) and centrifuged at 500 g at 4° C. for 5 min, and then the supernatant was discarded. […] Then, the cells in each well were then rinsed twice with 200 μL of pre-cooled FACS buffer and centrifuged at 500 g at 4° C. for 5 min, and then the supernatant was discarded. Finally, a pre-cooled FACS buffer was added at 200 μL/well to resuspend the cells. Fluorescence signal values were read using a BD FACS CANTOII flow cytometer or an ACEA NovoCyte flow cytometer, and the data were processed and analyzed using FlowJo v10 (FlowJo, LLC) software.

T1 sequence (Q07011 24-255): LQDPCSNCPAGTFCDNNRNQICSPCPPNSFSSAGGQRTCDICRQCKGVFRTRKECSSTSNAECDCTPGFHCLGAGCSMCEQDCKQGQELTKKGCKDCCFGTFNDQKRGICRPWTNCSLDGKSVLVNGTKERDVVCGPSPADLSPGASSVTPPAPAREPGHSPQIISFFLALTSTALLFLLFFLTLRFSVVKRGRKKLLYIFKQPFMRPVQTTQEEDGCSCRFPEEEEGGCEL

binding result	Binder
binds	PR003563 (bispecific antibody, human IgG1, kappa, L234A L235A, Structure 1, IgG-VH; CLDN18.2 Fab from PR002726, 4-1BB VH from PR001760; linker H1_15-RT; human IgG1 (AAG); also called CLDN18.2×4-1BB bispecific antibody molecule) light: not shown heavy: EVQLLESGGGLVQPGGSLRLSCAASGFTFSSFVMSWVRQAPGKGLEWVSTISGSGRSTYYADSVKGRFTISRDNSKNTLHLQMNSLRAEDTAVYYCAKDAAAAGTKFDYWGQGTLVTVSSASTKGPSVFPLAPSSKSTSGGTAALGCLVKDYFPEPVTVSWNSGALTSGVHTFPAVLQSSGLYSLSSVVTVPSSSLGTQTYICNVNHKPSNTKVDKKVEPKSCDKTHTCPPCPAPEAAGGPSVFLFPPKPKDTLMISRTPEVTCVVVDVSHEDPEVKFNWYVDGVEVHNAKTKPREEQYNSTYRVVSVLTVLHQDWLNGKEYKCKVSNKALGAPIEKTISKAKGQPREPQVYTLPPSREEMTKNQVSLTCLVKGFYPSDIAVEWESNGQPENNYKTTPPVLDSDGSFFLYSKLTVDKSRWQQGNVFSCSVMHEALHNHYTQKSLSLSPGEPKSSDKTHTPPPPPRTEVQLVESGGGVVQPGGSLRLSCAASGFTFSNYAMTWVRQAPEKGLEWVSSISGSGVSTYYADSVKGRFTISRDNSKNTLYLQMTRLTAEDTAVYFCAKEGSSETDDHYYNVDVWGQGTTVTVSS
binds	PR003564 (bispecific antibody, human IgG1, kappa, L234A L235A, Structure 1, IgG-VH; CLDN18.2 Fab from PR002726, 4-1BB VH from PR001836; linker H1_15-RT; human IgG1 (AAG); also called CLDN18.2×4-1BB bispecific antibody molecule) light: not shown heavy: EVQLLESGGGLVQPGGSLRLSCAASGFTFSSFVMSWVRQAPGKGLEWVSTISGSGRSTYYADSVKGRFTISRDNSKNTLHLQMNSLRAEDTAVYYCAKDAAAAGTKFDYWGQGTLVTVSSASTKGPSVFPLAPSSKSTSGGTAALGCLVKDYFPEPVTVSWNSGALTSGVHTFPAVLQSSGLYSLSSVVTVPSSSLGTQTYICNVNHKPSNTKVDKKVEPKSCDKTHTCPPCPAPEAAGGPSVFLFPPKPKDTLMISRTPEVTCVVVDVSHEDPEVKFNWYVDGVEVHNAKTKPREEQYNSTYRVVSVLTVLHQDWLNGKEYKCKVSNKALGAPIEKTISKAKGQPREPQVYTLPPSREEMTKNQVSLTCLVKGFYPSDIAVEWESNGQPENNYKTTPPVLDSDGSFFLYSKLTVDKSRWQQGNVFSCSVMHEALHNHYTQKSLSLSPGEPKSSDKTHTPPPPPRTEVQLLESGGGLVQPGGSLRLSCAASGFIFSNFAMTWVRQPPEKGLKWVSSINGSGFNTYYTDSVKGRFTISRDNSRNTLYLQMNRLTAEDTAVYFCAKEGSSETDDHYYNVDVWGQGTTVTVSS
binds	PR003562 (bispecific antibody, human IgG1, kappa, L234A L235A, Structure 1, IgG-VH; CLDN18.2 Fab from PR002726, 4-1BB VH from PR001758; linker H1_15-RT; human IgG1 (AAG); also called CLDN18.2×4-1BB bispecific antibody molecule) light: not shown heavy: EVQLLESGGGLVQPGGSLRLSCAASGFTFSSFVMSWVRQAPGKGLEWVSTISGSGRSTYYADSVKGRFTISRDNSKNTLHLQMNSLRAEDTAVYYCAKDAAAAGTKFDYWGQGTLVTVSSASTKGPSVFPLAPSSKSTSGGTAALGCLVKDYFPEPVTVSWNSGALTSGVHTFPAVLQSSGLYSLSSVVTVPSSSLGTQTYICNVNHKPSNTKVDKKVEPKSCDKTHTCPPCPAPEAAGGPSVFLFPPKPKDTLMISRTPEVTCVVVDVSHEDPEVKFNWYVDGVEVHNAKTKPREEQYNSTYRVVSVLTVLHQDWLNGKEYKCKVSNKALGAPIEKTISKAKGQPREPQVYTLPPSREEMTKNQVSLTCLVKGFYPSDIAVEWESNGQPENNYKTTPPVLDSDGSFFLYSKLTVDKSRWQQGNVFSCSVMHEALHNHYTQKSLSLSPGEPKSSDKTHTPPPPPRTEVQLLESGGGLVQLGGSLRLSCAASGFTFSRYAMTWVRQAPEKGLEWVSSISGSGDDTYYGDSVKGRFTISRDNSQNTVYLQMNSLRAEDTAVYFCAKEKAGTTGDYYYNVDVWGQGTTVTVSS
binds	PR001760, anti-4-1BB heavy-chain antibody 1016P0011G10 (antibody, human IgG1, V domains shown, Fully human heavy-chain antibody (HCAb), heavy chain dimer without light chains; also called anti-4-1BB HCAb antibody) VH: EVQLVESGGGVVQPGGSLRLSCAASGFTFSNYAMTWVRQAPEKGLEWVSSISGSGVSTYYADSVKGRFTISRDNSKNTLYLQMTRLTAEDTAVYFCAKEGSSETDDHYYNVDVWGQGTTVTVSS
